For assay [1], the target named is human HER3 receptor (human, UniProt P21860 20-1342). Description: cell-based or functional assay.
Assay [2] concerns the target T1, full-length rat HER3 extracellular domain (ECD) (rat, UniProt Q62799 20-643).
T1 construct: extracellular domain; also called Rat HER3 ECD
Description: BIACORE, antibody captured on protein A, rat HER3 ECD as analyte, 25 C, 1:1 model. (Surface plasmon resonance follows binding to a sensor surface in real time, without labels.)

Assay [3] has as its target T2, full-length human HER3 extracellular domain (ECD) (human, UniProt P21860 20-643).
T2 construct: also called human HER3 ECD; HER3 ECD full length
Description: BIACORE, antibody captured on protein A, HER3 ECD as analyte, 25 C, 1:1 model.

This note sets out measurements from patent WO2016059602A2 (dated 2016).

Chain of human HER3 receptor (P21860 20-1342 limits assumed): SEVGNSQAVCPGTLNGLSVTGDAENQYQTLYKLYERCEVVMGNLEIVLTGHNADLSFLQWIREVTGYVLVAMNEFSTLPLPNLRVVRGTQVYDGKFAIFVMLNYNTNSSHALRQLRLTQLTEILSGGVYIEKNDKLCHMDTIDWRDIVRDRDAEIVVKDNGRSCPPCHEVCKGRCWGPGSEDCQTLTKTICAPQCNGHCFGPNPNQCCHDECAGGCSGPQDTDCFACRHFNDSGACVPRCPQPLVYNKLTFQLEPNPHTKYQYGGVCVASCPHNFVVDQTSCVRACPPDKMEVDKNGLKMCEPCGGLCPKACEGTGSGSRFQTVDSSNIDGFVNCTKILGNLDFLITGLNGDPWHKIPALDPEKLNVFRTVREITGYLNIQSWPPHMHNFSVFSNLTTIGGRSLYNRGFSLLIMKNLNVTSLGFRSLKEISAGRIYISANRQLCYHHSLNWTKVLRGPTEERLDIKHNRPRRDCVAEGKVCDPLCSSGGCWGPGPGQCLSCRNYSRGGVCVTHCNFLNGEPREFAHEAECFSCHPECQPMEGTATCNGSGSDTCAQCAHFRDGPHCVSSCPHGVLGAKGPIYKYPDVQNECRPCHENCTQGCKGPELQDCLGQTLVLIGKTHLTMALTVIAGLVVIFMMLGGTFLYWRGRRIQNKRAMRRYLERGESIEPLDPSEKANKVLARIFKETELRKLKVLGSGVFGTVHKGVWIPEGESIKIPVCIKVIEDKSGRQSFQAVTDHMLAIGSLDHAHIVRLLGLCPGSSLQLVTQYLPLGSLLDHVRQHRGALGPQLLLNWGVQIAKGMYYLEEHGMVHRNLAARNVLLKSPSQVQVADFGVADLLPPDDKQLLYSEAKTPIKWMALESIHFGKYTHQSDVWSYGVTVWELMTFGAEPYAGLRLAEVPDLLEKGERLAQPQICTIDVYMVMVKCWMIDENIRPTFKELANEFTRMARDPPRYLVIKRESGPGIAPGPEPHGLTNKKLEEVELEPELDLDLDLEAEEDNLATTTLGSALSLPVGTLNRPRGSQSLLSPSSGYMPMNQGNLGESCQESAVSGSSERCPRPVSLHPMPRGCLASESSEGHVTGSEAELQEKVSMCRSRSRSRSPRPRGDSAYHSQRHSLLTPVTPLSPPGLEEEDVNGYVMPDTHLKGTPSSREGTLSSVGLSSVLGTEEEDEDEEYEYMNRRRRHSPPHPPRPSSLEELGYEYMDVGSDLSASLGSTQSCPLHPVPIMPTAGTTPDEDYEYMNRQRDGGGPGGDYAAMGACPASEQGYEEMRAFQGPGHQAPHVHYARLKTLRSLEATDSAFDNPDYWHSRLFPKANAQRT
T1 sequence (Q62799 20-643): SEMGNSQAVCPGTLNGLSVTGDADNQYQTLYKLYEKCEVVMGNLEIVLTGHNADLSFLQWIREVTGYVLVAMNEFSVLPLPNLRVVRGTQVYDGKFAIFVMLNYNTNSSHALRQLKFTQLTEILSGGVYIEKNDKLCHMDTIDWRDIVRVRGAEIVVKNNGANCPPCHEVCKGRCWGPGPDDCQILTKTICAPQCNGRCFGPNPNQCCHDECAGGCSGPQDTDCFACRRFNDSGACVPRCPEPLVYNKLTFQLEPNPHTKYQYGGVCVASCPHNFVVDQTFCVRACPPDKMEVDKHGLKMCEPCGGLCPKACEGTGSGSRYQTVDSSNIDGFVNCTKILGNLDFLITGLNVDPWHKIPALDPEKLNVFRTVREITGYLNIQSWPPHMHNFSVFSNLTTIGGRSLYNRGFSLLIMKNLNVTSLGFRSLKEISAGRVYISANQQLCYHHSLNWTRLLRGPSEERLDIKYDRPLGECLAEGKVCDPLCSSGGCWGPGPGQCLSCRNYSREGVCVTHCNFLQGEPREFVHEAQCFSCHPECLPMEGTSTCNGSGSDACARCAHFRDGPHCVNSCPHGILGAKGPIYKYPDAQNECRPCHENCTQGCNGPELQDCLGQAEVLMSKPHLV
T2 sequence (P21860 20-643): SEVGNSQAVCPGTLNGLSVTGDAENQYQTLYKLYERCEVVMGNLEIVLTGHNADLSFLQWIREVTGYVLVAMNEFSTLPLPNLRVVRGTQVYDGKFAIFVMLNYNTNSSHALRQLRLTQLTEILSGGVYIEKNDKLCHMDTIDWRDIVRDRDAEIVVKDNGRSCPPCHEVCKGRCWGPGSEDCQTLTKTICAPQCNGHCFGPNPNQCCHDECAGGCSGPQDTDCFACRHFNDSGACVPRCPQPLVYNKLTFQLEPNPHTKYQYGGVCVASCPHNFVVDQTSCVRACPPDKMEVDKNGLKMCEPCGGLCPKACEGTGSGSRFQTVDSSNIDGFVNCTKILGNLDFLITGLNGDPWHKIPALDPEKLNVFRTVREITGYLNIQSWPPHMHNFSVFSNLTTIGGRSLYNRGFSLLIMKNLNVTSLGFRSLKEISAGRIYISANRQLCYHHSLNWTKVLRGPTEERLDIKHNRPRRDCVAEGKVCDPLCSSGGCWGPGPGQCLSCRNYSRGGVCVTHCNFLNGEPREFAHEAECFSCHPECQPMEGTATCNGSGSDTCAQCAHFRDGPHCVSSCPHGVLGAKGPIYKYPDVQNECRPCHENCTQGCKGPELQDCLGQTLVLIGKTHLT

B1: murine 1D9 antibody (M5.1D9.1F5) (antibody, V domains shown)
VH: QVQLQQPGAELVRPGTSVKLSCKASGYTFTSYWMHWVKQRPGQGLEWIGVIDPSDGYSHYNQKFKGKATLTVDTSSSTAYMQLSSLTSEDSAVYYCAGGLAGTLDYWGQGTTLTVSS
VL: DVLMTQTPLSLPVSLGDQASISCRSSQSIVHSSGNTYLQWFLQKPGQSPKLLISKVSNRFSGVPDRFSGSGSGTDFTLRISRVEAEDLGLYYCFQGSHVPWTFGGGTKLEIK
Consider B1, for which, in assay [1], the “IC50, ligand (EGF, betacellulin or heregulin) induced HER3 receptor phosphorylation, SK-BR-3 cells” value is about 0.003 µg/mL; the “Phospho-HER3 ELISA IC50, heregulin induced HER3 phosphorylation, BT-474 cells” value was found to be 0.0223 µg/mL; the “Phospho-HER3 ELISA IC50, heregulin induced HER3 phosphorylation, BxPC3 cells” value (“Phospho-HER3 ELISA IC50 … BxPC3 cells” below) worked out at 0.0068 µg/mL; the “Phospho-HER3 ELISA IC50, heregulin induced HER3 phosphorylation, CHL-1 cells” value (shortened to “Phospho-HER3 ELISA IC50 … CHL-1 cells”) was 0.0406 µg/mL. For the same molecule, in assay [1], the “Phospho-HER3 ELISA IC50, heregulin induced HER3 phosphorylation, MCF7 cells” value was found to be 0.0104 µg/mL; the “Phospho-HER3 ELISA IC50, heregulin induced HER3 phosphorylation, N87 cells” value (“Phospho-HER3 ELISA IC50 … N87 cells” for short) was 0.0204 µg/mL; the “Phospho-HER3 ELISA IC50, heregulin induced HER3 phosphorylation, SK-BR-3 cells” value (from here on “Phospho-HER3 ELISA IC50 … SK-BR-3 cells”) was found to be 0.0032 µg/mL.

B2: humanized 1D9 POTELLIGENT antibody (antibody, human IgG1, kappa, V domains shown)
VH: QVQLVQSGAEVKKPGASVKVSCKASGYTFTSYWMHWVRQAPGQGLEWMGVIDPSDGYSHYNQKFKGKVTLTVDTSISTAYMELSRLRSDDTAVYYCAGGLAGTLDYWGQGTTVTVSS
VL: DIQMTQSPSSLSASVGDRVTITCRSSQSIVHSSGNTYLQWFQQKPGKAPKLLIYKVSNRFSGVPSRFSGSGSGTDFTLTISSLQPEDFAVYYCFQGSHVPWTFGQGTKLEIKR
notes: also called humanized 1D9 H6L2 POTELLIGENT antibody; humanized POTELLIGENT antibody
A word on the Kd: it is a measure of binding affinity in units of concentration. Low readings indicate tighter binding, high ones weaker binding. As usually defined, the koff is a measure of how fast the partners let go of each other. The low end stands for slow dissociation, the high end for fast dissociation. For orientation: kon means a measure of how fast the partners come together. Read a low kon as slow association. Consider B2, for which, in assay [2], binding was characterised by a dissociation constant (Kd) of 3.37 nM, the koff turned out to be 0.0011 s⁻¹ and the kon was found to be 326000 M⁻¹ s⁻¹. In assay [1], the “Phospho-HER3 ELISA IC50 … BxPC3 cells” value was determined as 0.0056 µg/mL; the “Phospho-HER3 ELISA IC50 … CHL-1 cells” value was found to be 0.0282 µg/mL; the “Phospho-HER3 ELISA IC50 … N87 cells” value worked out at 0.0175 µg/mL; the “Phospho-HER3 ELISA IC50 … SK-BR-3 cells” value was determined as 0.0034 µg/mL. Also, in assay [3], binding was put at a Kd of 2.01 nM, the koff was 0.00223 s⁻¹ and the on-rate (kon) turned out to be 1.11e+06 M⁻¹ s⁻¹.

B3: humanized 1D9 Fc disabled antibody (antibody, V domains shown)
VH: QVQLVQSGAEVKKPGASVKVSCKASGYTFTSYWMHWVRQAPGQGLEWMGVIDPSDGYSHYNQKFKGKVTLTVDTSISTAYMELSRLRSDDTAVYYCAGGLAGTLDYWGQGTTVTVSS
VL: DIQMTQSPSSLSASVGDRVTITCRSSQSIVHSSGNTYLQWFQQKPGKAPKLLIYKVSNRFSGVPSRFSGSGSGTDFTLTISSLQPEDFAVYYCFQGSHVPWTFGQGTKLEIKR
notes: also called humanized 1D9 H6L2 Fc disabled antibody
For B3, in assay [1], the “Phospho-HER3 ELISA IC50 … BxPC3 cells” value was 0.0107 µg/mL; the “Phospho-HER3 ELISA IC50 … CHL-1 cells” value was determined as 0.0399 µg/mL; the “Phospho-HER3 ELISA IC50 … N87 cells” value is 0.0297 µg/mL; the “Phospho-HER3 ELISA IC50 … SK-BR-3 cells” value is 0.0044 µg/mL. In assay [3], this molecule gave a Kd of 4.49 nM, a koff of 0.00122 s⁻¹ and a kon of 271000 M⁻¹ s⁻¹.

B4: humanized 1D9 antibody (antibody, human IgG1, kappa, V domains shown)
VH: QVQLVQSGAEVKKPGASVKVSCKASGYTFTSYWMHWVRQAPGQGLEWMGVIDPSDGYSHYNQKFKGKVTLTVDTSISTAYMELSRLRSDDTAVYYCAGGLAGTLDYWGQGTTVTVSS
VL: DIQMTQSPSSLSASVGDRVTITCRSSQSIVHSSGNTYLQWFQQKPGKAPKLLIYKVSNRFSGVPSRFSGSGSGTDFTLTISSLQPEDFAVYYCFQGSHVPWTFGQGTKLEIKR
As for B4, in assay [1], the “Phospho-HER3 ELISA IC50 … BxPC3 cells” value was 0.0116 µg/mL; the “Phospho-HER3 ELISA IC50 … CHL-1 cells” value is 0.0365 µg/mL; the “Phospho-HER3 ELISA IC50 … N87 cells” value is 0.0218 µg/mL; the “Phospho-HER3 ELISA IC50 … SK-BR-3 cells” value stood at 0.0036 µg/mL.

B5: murine 15D5 antibody (M5.15D5.2A1.1H10) (antibody, V domains shown)
VH: EFQLQQSGPELVKPGASVKISCKASGYSFTDYNMNWVKQNNGKSLEWIGGINPNYGTTVYNQKFKGKATLTVDQSSSTAYMQLVSLTSEDSAVYYCARMTTIVPFDYWGQGTTLTVSS
VL: DIQMTQTTFSLSASLGDRVTISCRASQDISNYLNWYQQKPDGTVKLLIYYTSTLHSGVPSRFSGSGSGTDYFLTIRNLEEEDIATYFCQQGYTLPWTFGGGTKLDIK
B5: in assay [1], the “Phospho-HER3 ELISA IC50, heregulin induced HER3 phosphorylation, BT-474 cells” value stood at 0.12 µg/mL; the “Phospho-HER3 ELISA IC50 … BxPC3 cells” value came to 0.0541 µg/mL; the “Phospho-HER3 ELISA IC50 … CHL-1 cells” value came out at 0.138 µg/mL; the “Phospho-HER3 ELISA IC50, heregulin induced HER3 phosphorylation, MCF7 cells” value amounted to 0.0593 µg/mL. For the same molecule, in assay [1], the “Phospho-HER3 ELISA IC50 … N87 cells” value came out at 0.0533 µg/mL and the “Phospho-HER3 ELISA IC50 … SK-BR-3 cells” value was found to be 0.0191 µg/mL.
